Substitutions are numbered along the chain they refer to.
What was measured:
[1] = target: T1, Human TROP2 Protein, His Tag (Acro Biosystems) (human, UniProt P09758 27-274); assay: Octet BLI, IgG on anti-human Fc sensor; 3 = No binding
T1 construct: Bought antigen used at 50 nM in the Octet screen; also called TACSTD2; not shown: His tag
T1 sequence (looked up): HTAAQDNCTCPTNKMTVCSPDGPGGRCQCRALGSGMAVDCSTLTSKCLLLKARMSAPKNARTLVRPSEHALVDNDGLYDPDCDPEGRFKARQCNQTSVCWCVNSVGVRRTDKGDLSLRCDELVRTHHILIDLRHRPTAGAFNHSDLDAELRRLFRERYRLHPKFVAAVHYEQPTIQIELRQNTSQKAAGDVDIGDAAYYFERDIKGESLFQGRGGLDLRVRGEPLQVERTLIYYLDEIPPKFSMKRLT

[2] = target: T2, Human TROP2 Protein, His Tag (Acro Biosystems) (human, UniProt P09758 27-274); assay: BLI (Octet), antibody on anti-human Fc sensor, 50 nM human TROP2-His, dissociation at pH 7.4 or 5.4; grade 2 = No change vs parent
T2 construct: Bought protein; also called TACSTD2; not shown: His tag
T2 sequence: T1 sequence (looked up)

[3] = target: T2, Human TROP2 Protein, His Tag (Acro …); assay: BLI (Octet), antibody on anti-human Fc sensor, 50 nM human TROP2-His, dissociation at pH 7.4 or 5.4; grade 1 = pH dependent
[4] = target: T3, Human TROP2 Protein, His Tag (Acro Biosystems) (human, UniProt P09758 27-274); assay: BLI (Octet), Ab on anti-human Fc sensor, 50 nM TROP2-His; 2 = No change vs parent
T3 construct: Bought protein; not shown: His tag
T3 sequence (looked up): T1 sequence (looked up)
Procedure: The resulting diluted supernatants were then captured on an anti-human Fc sensor (Forte Bio). A baseline was established using 1×PBST (50 mM Potassium Phosphate Buffer+150 mM NaCl+0.05% Tween 20) pH 7.4, and the sensor was associated with 50 nM of TROP2 (Human TROP2 Protein, His Tag, Acro Biosystems) in 1×PBST pH 7.4 for 120 sec to generate an association curve. In the dissociation phase, the antibody-antigen complex on the sensor was exposed to 1×PBST pH 7.4 or pH 5.4, for 300 sec. Association and dissociation phase curves were examined for the starting ABPC antibody (with no substitutions) and each corresponding antibody variant at pH 5.4 and pH 7.4 to inform on two criteria: a) enhanced dissociation (i.e., higher koff values) at pH 5.4 due to histidine or alanine substitution compared to the starting ABPC, (with no substitutions), and b) reduced dissociation at pH 7.4 (i.e., lower koff values) compared to pH 5.4 in the antibody variant itself and with the starting ABPC (with no substitutions). […] It was also noted that while some mutations obliterated TROP2 binding, others were tolerated with little or n change in TROP2 binding kinetics.
For each such table, the “MYT #” provides an identifier for each antigen binding protein (ABP), and the values from each column (reading along each row) provide characteristics and data associated with each ABP. […]

[5] = target: T4, Human TROP2 Protein, His Tag (Acro Biosystems) (human, UniProt P09758 27-274); assay: BLI (Octet), IgG on anti-human Fc sensor, 50 nM TROP2-His; 1 = pH dependent
T4 construct: also called TACSTD2; not shown: His tag
T4 sequence (looked up): T1 sequence (looked up)
Procedure: After allowing for four days of protein expression, cell culture supernatants were collected, quantified by SDS-PAGE analysis (DNS), and the pH dependence of the variant was evaluated using biolayer interferometry (BLI) on an Octet RED 96e instrument. Briefly, cell culture supernatants were diluted based on qualitative expression level of the variant determined by visual examination of SDS-PAGE gels, 5 μL of cell culture supernatant was diluted into 195 μL of 1×PBST, pH 7.4 for high expressors, 25 μL of cell culture supernatant was diluted into 175 μL of 1×PBST, pH 7.4 for medium expressors and 100 μL of cell culture supernatant was diluted into 100 μL of 1×PBST, pH 7.4 for low expressors for loading onto the sensor tips. The resulting diluted supernatants were then captured on an anti-human Fc sensor (Forte Bio). A baseline was established using 1×PBST (50 mM Potassium Phosphate Buffer+150 mM NaCl+0.05% Tween 20) pH 7.4, and the sensor was associated with 50 nM of TROP2 (Human TROP2 Protein, His Tag, Acro Biosystems) in 1×PBST pH 7.4 for 120 sec to generate an association curve. In the dissociation phase, the antibody-antigen complex on the sensor was exposed to 1×PBST pH 7.4 or pH 5.4, for 300 sec. […]

[6] = target: T5, Human TROP2 Protein, His Tag (Acro Biosystems) (human, UniProt P09758 27-274); assay: Octet BLI, IgG on anti-human Fc sensor; 3 = No binding
T5 construct: not shown: His tag
T5 sequence (looked up): T1 sequence (looked up)

B1: MYT11717 (antibody, V domains shown)
VH: QVQLQESGPGLVKPSETLSLTCTVSGGSISSYGVHWIRQPPGKGLEWIGVIHTSGVTDYNSALMGRVTISVDTSKNQFSLKLSSVTAADTAVYYCARDGDYDRYTMDYWGQGTLVTVSS
VL: DIVMTQSPDSLAVSLGERATINCRASKSVSTSGYSYMHWYQQKPGQPPKLLIYLASNLESGVPDRFSGSGSGTDFTLTISSLQAEDVAVYYCQHSRELPYTFGQGTKLEIK
notes: hu7E6SVG variant, His at HCV position 52 (H2 03); screened as IgG in Expi293 supernatant
- binding result [1]: no binding (tested: 50 nM)

B2: MYT12452 (hu7E6SVG variant, LCV substitutions at 94, 101 (Ala at 94)) (antibody, V domains shown)
VH: B1 VH with H52W
VL: B1 VL with H94A, T101H
notes: Full IgG in Expi293 supernatant
- binding result [2]: binds

B3: MYT12470 (hu7E6SVG variant, LCV substitutions at 93, 94, 97 (Ala at 94)) (antibody, V domains shown)
VH: B1 VH with H52W
VL: B1 VL with Q93H, H94A, E97H
notes: as for B2
- binding result [3]: binds

B4: MYT11583 (antibody, V domains shown)
VH: QVQLQQSGSELKKPGASVKVSCKASGYTFTNYGMNWVKQAPGQGLKWMGWINTYTHEPTYTDDFKGRFAFSLDTSVSTAYLQISSLKADDTAVYFCARGGFGSSYWYFDVWGQGSLVTVSS
VL: DIQLTQSPSSLSASVGDRVSITCKASQDVSIAVAWYQQKPGKAPKLLIYSASYRYTGVPDRFSGSGSGTDFTLTISSLQPEDFAVYYCQQHYITPLTFGAGTKVEIK
notes: Sacituzumab variant, His at HCV position 56 (H2 07)
- binding result [4]: binds

B5: MYT13385 (antibody, V domains shown)
VH: B4 VH with H56G, D62H
VL: B4 VL with S30H, S52H
notes: Sacituzumab HC-LC pairing variant
- binding result [5]: binds

B6: MYT12395 (antibody, V domains shown)
VH: QVQLVQSGAEVKKPGASVKVSCKASGYTFTTAGMQWVRQAPGQGLEWMGWINTHSGVPKYAEDFKGRVTISADTSTSTAYLQLSSLKSEDTAVYYCARSGFGSSYWYFDVWGQGTLVTVSS
VL: B4 VL with L4M, S20T, I31T, S52H, D60S, Q89H, A100Q, V104L
notes: datopotamab VL 52, 89 substituted
- binding result [6]: no binding (tested: 50 nM TROP2)

From US20260274985A1 (MYTHIC THERAPEUTICS, published 2026)
